{"source": "paper PMC7705038", "biological_target": "McbR (Escherichia coli (avian pathogenic, strain APECX40)) (UniProt P76114)", "sequence (P76114 whole entry)": "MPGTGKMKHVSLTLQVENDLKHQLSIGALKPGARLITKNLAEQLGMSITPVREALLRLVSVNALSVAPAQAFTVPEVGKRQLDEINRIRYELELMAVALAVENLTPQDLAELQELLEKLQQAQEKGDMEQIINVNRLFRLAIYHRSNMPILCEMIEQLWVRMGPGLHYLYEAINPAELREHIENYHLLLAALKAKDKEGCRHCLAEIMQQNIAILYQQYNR", "assay": "EMSA"}
{"sequence": "ATGTTCGTGAATTTACAGGCGTTAGATTTACATACATTTGTGAATGTATGTACCATAGCACGACGATAATATAAACGCAGCAATGGGTTTATTAACTTTTGACCATTGACCAATTTGAAATCGGACACTCGAGGTTTACAT (double strand) [p-acrAB]", "values": [{"measurement": "binding", "value": "binds"}]}
